For orientation: stoichiometry N means the number of molecules, sites or subunits per partner or assembly.

The values that follow come from paper PMC2516325.

The experiment has as its target recombinant CquiOBP1, odorant-binding protein from Culex pipiens quinquefasciatus (Culex pipiens quinquefasciatus). The experiment is described as follows: SEC; gel filtration of purified recombinant CquiOBP1 on Superdex-75 26/60, 150 mM NaCl, 20 mM Tris-HCl pH 8; monomer and dimer peaks isolated; the dimer slowly dissociates into monomer (1 hour at room temperature, overnight at 4°C). On the technique in general: SEC sorts molecules by how far they enter the pores of the column.

For the substance “recombinant CquiOBP1, odorant-binding protein from Culex pipiens quinquefasciatus (natural protein)”, the stoichiometry N is 2.
